Laboratory results as given in patent US20230265151A1, “GIP/GLP1 CO-AGONIST COMPOUNDS” (priority 2020, published 2023).
Changes are numbered by the printed parent chain. *1 amine or outer side, *2 acyl side, *3 side chain or, on linkers, in order; H or OH if unused. Where no end group is shown, it is not given here. Side-chain parts run from the residue outwards. [ ]: non-standard residue; d: D form. The star is where a group is joined. Decanoyl(10-(4-HOOC-PhO)) = O=C(O)c1ccc(OCCCCCCCCCC(=O)*)cc1; αMePhe(2-F) = C[C@](N)(Cc1ccccc1F)C(=O)O; γGlu = O=C(O)[C@H](CCC(=O)[*:2])N[*:1]; C14 diacid = O=C(O)CCCCCCCCCCCCC(=O)*; αMeY = C[C@](N)(Cc1ccc(O)cc1)C(=O)O; 4Pal = N[C@@H](Cc1ccncc1)C(=O)O; αMeL = CC(C)C[C@](C)(N)C(=O)O; Lauroyl = CCCCCCCCCCCC(=O)*; Orn = NCCC[C@H](N)C(=O)O; AEEA = NCCOCCOCC(=O)O; Aib = CC(C)(N)C(=O)O

B1: Example 399 (peptide)
peptide: Y[Aib]EGT[αMePhe(2-F)]TSDV[Aib]I[αMeL]LD[Orn]K([AEEA-γGlu-C14 diacid])AQ[Aib]EFI[dE][αMeY]LIK([AEEA-γGlu-C14 diacid])GGPSSGAPPPS-NH2
modifications: N-terminus assumed
SMILES: CC[C@H](C)[C@H](NC(=O)[C@H](CC(C)C)NC(=O)[C@](C)(Cc1ccc(O)cc1)NC(=O)[C@@H](CCC(=O)O)NC(=O)[C@@H](NC(=O)[C@H](Cc1ccccc1)NC(=O)[C@H](CCC(=O)O)NC(=O)C(C)(C)NC(=O)[C@H](CCC(N)=O)NC(=O)[C@H](C)NC(=O)[C@H](CCCCNC(=O)COCCOCCNC(=O)CC[C@H](NC(=O)CCCCCCCCCCCCC(=O)O)C(=O)O)NC(=O)[C@H](CCCN)NC(=O)[C@H](CC(=O)O)NC(=O)[C@H](CC(C)C)NC(=O)[C@](C)(CC(C)C)NC(=O)[C@@H](NC(=O)C(C)(C)NC(=O)[C@@H](NC(=O)[C@H](CC(=O)O)NC(=O)[C@H](CO)NC(=O)[C@@H](NC(=O)[C@](C)(Cc1ccccc1F)NC(=O)[C@@H](NC(=O)CNC(=O)[C@H](CCC(=O)O)NC(=O)C(C)(C)NC(=O)[C@@H](N)Cc1ccc(O)cc1)[C@@H](C)O)[C@@H](C)O)C(C)C)[C@@H](C)CC)[C@@H](C)CC)C(=O)N[C@@H](CCCCNC(=O)COCCOCCNC(=O)CC[C@H](NC(=O)CCCCCCCCCCCCC(=O)O)C(=O)O)C(=O)NCC(=O)NCC(=O)N1CCC[C@H]1C(=O)N[C@@H](CO)C(=O)N[C@@H](CO)C(=O)NCC(=O)N[C@@H](C)C(=O)N1CCC[C@H]1C(=O)N1CCC[C@H]1C(=O)N1CCC[C@H]1C(=O)N[C@@H](CO)C(N)=O
B2: Example 418 (peptide)
peptide: YXEGTXTSDXXIXLDXKAQXXFIXXLIEGGPSSGAPPPSK
modifications: Y-Aib-EGT-αMeF(2F)-TSD-4Pal-Aib-I-αMeL-LD-Orn-K((2-[2-(2-Amino-ethoxy)-ethoxy]-acetyl)2-(γ-Glu)-CO-(CH2)10-CH3)AQ-Aib-Orn-FI-(D-Glu)-αMeY-LIEGGPSSGAPPPSK((2-[2-(2-Amino-ethoxy)-ethoxy]-acetyl)2-(γ-Glu)-CO-(CH2)10-CH3)-NH2
B3: Example 404 (peptide)
peptide: YXEGTXTSDXXIXLDXKAQXKFIXXLIEGGPSSGAPPPS
modifications: Y-Aib-EGT-αMeF(2F)-TSD-4Pal-Aib-I-αMeL-LD-Orn-K(PEG3-(γ-Glu)-CO-(CH2)12-CO2H)AQ-Aib-K(PEG3-(γ-Glu)-CO-(CH2)12-CO2H)FI-(D-Glu)-αMeY-LIEGGPSSGAPPPS-NH2
B4: Example 409 (peptide)
peptide: B3 peptide with X10Y, E28X
modifications: Y-Aib-EGT-αMeF(2F)-TSDY-Aib-I-αMeL-LD-Orn-K((2-[2-(2-Amino-ethoxy)-ethoxy]-acetyl)2-(γ-Glu)-(10-(4-carboxyphenoxy)decanoyl))AQ-Aib-K((2-[2-(2-Amino-ethoxy)-ethoxy]-acetyl)2-(γ-Glu)-(10-(4-carboxyphenoxy)decanoyl))FI-(D-Glu)-αMeY-LI-Orn-GGPSSGAPPPS-NH2
B5: Example 405 (peptide)
peptide: B3 peptide
modifications: Y-Aib-EGT-αMeF(2F)-TSD-4Pal-Aib-I-αMeL-LD-Orn-K(PEG4-(γ-Glu)-CO-(CH2)12-CO2H)AQ-Aib-K(PEG4-(γ-Glu)-CO-(CH2)12-CO2H)FI-(D-Glu)-αMeY-LIEGGPSSGAPPPS-NH2
B6: Example 414 (peptide)
peptide: B3 peptide with K21X, E28K
modifications: Y-Aib-EGT-αMeF(2F)-TSD-4Pal-Aib-I-αMeL-LD-Orn-K((2-[2-(2-Amino-ethoxy)-ethoxy]-acetyl)2-(γ-Glu)-CO-(CH2)10-CH3)AQ-Aib-Orn-FI-(D-Glu)-αMeY-LIK((2-[2-(2-Amino-ethoxy)-ethoxy]-acetyl)2-(γ-Glu)-CO-(CH2)10-CH3)GGPSSGAPPPS-NH2
B7: Example 417 (peptide)
peptide: B3 peptide with X10K, K21X
modifications: Y-Aib-EGT-αMeF(2F)-TSDK((2-[2-(2-Amino-ethoxy)-ethoxy]-acetyl)2-(γ-Glu)-CO-(CH2)10-CH3)-Aib-I-αMeL-LD-Orn-K((2-[2-(2-Amino-ethoxy)-ethoxy]-acetyl)2-(γ-Glu)-CO-(CH2)10-CH3)AQ-Aib-Orn-FI-(D-Glu)-αMeY-LIEGGPSSGAPPPS-NH2
B8: Example 407 (peptide)
peptide: Y[Aib]EGT[αMePhe(2-F)]TSDV[Aib]I[αMeL]LD[Orn]K([AEEA-AEEA-γGlu-C14 diacid])AQ[Aib]K([AEEA-AEEA-γGlu-C14 diacid])FI[dE][αMeY]LI[Orn]GGPSSGAPPPS-NH2
modifications: N-terminus assumed
SMILES: CC[C@H](C)[C@H](NC(=O)[C@H](CC(C)C)NC(=O)[C@](C)(Cc1ccc(O)cc1)NC(=O)[C@@H](CCC(=O)O)NC(=O)[C@@H](NC(=O)[C@H](Cc1ccccc1)NC(=O)[C@H](CCCCNC(=O)COCCOCCNC(=O)COCCOCCNC(=O)CC[C@H](NC(=O)CCCCCCCCCCCCC(=O)O)C(=O)O)NC(=O)C(C)(C)NC(=O)[C@H](CCC(N)=O)NC(=O)[C@H](C)NC(=O)[C@H](CCCCNC(=O)COCCOCCNC(=O)COCCOCCNC(=O)CC[C@H](NC(=O)CCCCCCCCCCCCC(=O)O)C(=O)O)NC(=O)[C@H](CCCN)NC(=O)[C@H](CC(=O)O)NC(=O)[C@H](CC(C)C)NC(=O)[C@](C)(CC(C)C)NC(=O)[C@@H](NC(=O)C(C)(C)NC(=O)[C@@H](NC(=O)[C@H](CC(=O)O)NC(=O)[C@H](CO)NC(=O)[C@@H](NC(=O)[C@](C)(Cc1ccccc1F)NC(=O)[C@@H](NC(=O)CNC(=O)[C@H](CCC(=O)O)NC(=O)C(C)(C)NC(=O)[C@@H](N)Cc1ccc(O)cc1)[C@@H](C)O)[C@@H](C)O)C(C)C)[C@@H](C)CC)[C@@H](C)CC)C(=O)N[C@@H](CCCN)C(=O)NCC(=O)NCC(=O)N1CCC[C@H]1C(=O)N[C@@H](CO)C(=O)N[C@@H](CO)C(=O)NCC(=O)N[C@@H](C)C(=O)N1CCC[C@H]1C(=O)N1CCC[C@H]1C(=O)N1CCC[C@H]1C(=O)N[C@@H](CO)C(N)=O

Columns and labels:
Assay in all cases: cell-based or functional assay
hGLP-1R = hGLP-1R (Homo sapiens, UniProt P43220)
[1] = target: T1, human GIP receptor (human) (UniProt P48546)
T1 sequence (looked up): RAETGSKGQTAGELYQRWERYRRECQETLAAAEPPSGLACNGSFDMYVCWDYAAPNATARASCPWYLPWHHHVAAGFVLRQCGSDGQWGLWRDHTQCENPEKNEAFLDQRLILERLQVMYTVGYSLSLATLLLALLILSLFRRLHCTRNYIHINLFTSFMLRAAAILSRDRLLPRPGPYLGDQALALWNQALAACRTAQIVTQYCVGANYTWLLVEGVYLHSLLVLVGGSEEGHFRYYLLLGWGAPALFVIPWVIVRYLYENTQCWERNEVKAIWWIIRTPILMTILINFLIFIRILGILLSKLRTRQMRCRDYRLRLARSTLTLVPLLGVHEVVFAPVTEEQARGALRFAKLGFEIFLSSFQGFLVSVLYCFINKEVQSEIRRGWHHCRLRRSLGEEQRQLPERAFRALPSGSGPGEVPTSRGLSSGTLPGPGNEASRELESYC

[2] = target: human glucagon receptor (human) (UniProt P47871)
human GIP receptor = target: T2, human GIP receptor (human, UniProt P48546 22-466)
T2 sequence (looked up): T1 sequence (looked up)

human GLP-1 receptor = human GLP-1 receptor (human, UniProt P43220 24-463)
human glucagon receptor = human glucagon receptor (human, UniProt P47871 26-477)
human glucagon receptor, sequence (P47871 26-477): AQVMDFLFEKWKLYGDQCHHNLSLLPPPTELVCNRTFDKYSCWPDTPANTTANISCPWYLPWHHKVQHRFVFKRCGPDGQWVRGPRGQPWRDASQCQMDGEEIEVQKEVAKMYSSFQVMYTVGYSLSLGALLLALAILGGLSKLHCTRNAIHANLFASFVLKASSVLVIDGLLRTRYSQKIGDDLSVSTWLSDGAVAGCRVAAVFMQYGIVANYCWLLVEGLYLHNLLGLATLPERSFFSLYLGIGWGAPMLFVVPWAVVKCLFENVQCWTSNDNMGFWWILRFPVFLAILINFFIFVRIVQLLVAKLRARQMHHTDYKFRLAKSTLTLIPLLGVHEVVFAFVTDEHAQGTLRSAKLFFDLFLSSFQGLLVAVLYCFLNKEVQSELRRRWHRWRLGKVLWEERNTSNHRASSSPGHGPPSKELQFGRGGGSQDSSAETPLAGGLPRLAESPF

Binder	cAMP EC50 (hGLP-1R) [nM]	cAMP Emax (hGLP-1R) [%]	cAMP EC50 [1] [nM]	cAMP Emax [1] [%]	cAMP EC50 [2] [nM]	cAMP EC50 (1.0% HSA) (human GIP receptor) [nM]	cAMP EC50 (1.0% HSA) (human GLP-1 receptor) [nM]	cAMP EC50 (1.0% HSA) (human glucagon receptor) [nM]	cAMP Emax (1.0% HSA) (human GIP receptor) [%]	cAMP Emax (1.0% HSA) (human GLP-1 receptor) [%]
Y[Aib]EGT[αMePhe(2-F)]TSDK([AEEA-AEEA-γGlu-Lauroyl])[Aib]I[αMeL]LD[Orn]K([AEEA-AEEA-γGlu-Lauroyl])AQ[Aib][4Pal]FI[dE][αMeY]LIEGGPSSGAPPPS-NH2 [Example 415]	0.122	109	0.00991	101	> 9950	0.492	5.72	> 9950	–	–
B1	0.259	91.9	0.0186	98.4	> 9950	16.2	43.6	> 9950	86.8	89.7
B2	0.0603	93.7	0.00599	91	> 9950	0.126	1.72	> 9950	–	98.8
B3	0.632	94.3	0.014	101	> 9950	1.74	49.1	> 9950	–	–
B4	0.188	103	0.00928	99.2	> 9950	0.537	8.05	> 9950	84	97.7
B5	1.26	93.3	0.0209	100	> 9950	1.23	37.5	> 9950	–	78.1
B6	0.119	–	0.00961	98.4	> 9950	0.274	3.24	> 9950	92.2	–
B7	0.0675	109	0.00651	101	> 9950	0.201	2.66	> 9950	–	–
B8	0.156	100	0.0114	99.2	> 9950	1.87	12.4	> 9950	95.4	97.2
Y[Aib]EGT[αMePhe(2-F)]TSDV[Aib]I[αMeL]LD[Orn]K([AEEA-AEEA-γGlu-Decanoyl(10-(4-HOOC-PhO))])AQ[Aib]K([AEEA-AEEA-γGlu-Decanoyl(10-(4-HOOC-PhO))])FI[dE][αMeY]LI[Orn]GGPSSGAPPPS-NH2 [Example 410]	0.251	94	0.0118	99.1	> 9950	1.28	11	> 9950	86.4	93.1
